Measurements from publication PMC2781463 (The Journal of Biological Chemistry, 2009).

Biological target: Blom7α-His6 (pET-30a(+)) (human, UniProt Q7Z7F0-1 1-614)
Assay: pull-down

B1: GST-SNEV^Prp19-Pso4 (natural protein)
chain: MSLICSISNEVPEHPCVSPVSNHVYERRLIEKYIAENGTDPINNQPLSEEQLIDIKVAHPIRPKPPSATSIPAILKALQDEWDAVMLHSFTLRQQLQTTRQELSHALYQHDAACRVIARLTKEVTAAREALATLKPQAGLIVPQAVPSSQPSVVGAGEPMDLGELVGMTPEIIQKLQDKATVLTTERKKRGKTVPEELVKPEELSKYRQVASHVGLHSASIPGILALDLCPSDTNKILTGGADKNVVVFDKSSEQILATLKGHTKKVTSVVFHPSQDLVFSASPDATIRIWSVPNASCVQVVRAHESAVTGLSLHATGDYLLSSSDDQYWAFSDIQTGRVLTKVTDETSGCSLTCAQFHPDGLIFGTGTMDSQIKIWDLKERTNVANFPGHSGPITSIAFSENGYYLATAADDSSVKLWDLRKLKNFKTLQLDNNFEVKSLIFDQSGTYLALGGTDVQIYICKQWTEILHFTEHSGLTTGVAFGHHAKFIASTGMDRSLKFYSL
B1: binds.
